From US20120251453A1 (SANFORD BURNHAM MEDICAL RESEARCH INSTITUTE, published 2012)
No end group written: not given here. Alexa Fluor 488 C5‑maleimide = fluorescent dye linked to the Cys thiol through maleimide

Tests used:
[1] = target: recombinant Anxa1-His6 protein; assay: isothermal titration calorimetry, peptide injected into Anxa1-His protein, 23° C.; average over two Anxa1-His preparations
[2] = target: T1, annexin 1 (Anxa1) expressed on mouse endothelial cells (F-2 cells; tumor vasculature in mice) (mouse, UniProt P10107 2-346); assay: intravital fluorescence of LLC tumors in a dorsal skinfold chamber after intravenous injection; signal intensity over time, with or without pre-injected rabbit IgG or anti-Anxa1 antibody
T1 construct: whole, on cells; Endogenous protein on cells; also called Anxa1 expressed on the endothelial cell surface
T1 sequence (looked up): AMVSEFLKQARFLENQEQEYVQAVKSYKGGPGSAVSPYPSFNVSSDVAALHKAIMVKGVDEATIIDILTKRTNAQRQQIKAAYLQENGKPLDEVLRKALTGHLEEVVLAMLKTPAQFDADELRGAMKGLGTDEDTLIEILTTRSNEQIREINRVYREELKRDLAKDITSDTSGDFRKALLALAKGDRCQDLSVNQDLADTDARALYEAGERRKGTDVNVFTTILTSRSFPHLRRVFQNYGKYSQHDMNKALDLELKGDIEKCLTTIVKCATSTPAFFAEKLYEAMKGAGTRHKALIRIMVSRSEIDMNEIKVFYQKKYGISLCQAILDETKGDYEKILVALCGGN
Experimental: (A) Lewis lung carcinoma (LLC) tumors were allowed to vascularize for 3 days in dorsal skinfold chamber window in nude mice. Mice were injected with 100 μl of 50 μM IF7-A488 (row a) or RQ7-A488 (row b) in 5% glucose in water. IF7-A488 was also injected to tumor-bearing mice pre-injected with rabbit IgG (row c) or with rabbit anti-Anxa1 antibody (row d). Fluorescence signals were monitored under a fluorescence microscope up to 40 min post-injection. From left: bright field before injection, and fluorescence at 0, 5, 20 min after injection. Far right, the boundary of tumor and stroma at 20 min (Scale bar=500 μm). (B) Quantitative analysis of fluorescence during the course of the analysis shown in A. The line with the highest signal at 10 minutes represents IF&-A488. The line with the second highest signal at 10 minutes represents the control IgG. […] Intensity of fluorescence was determined by Image J program. […] (C) Fluorescence micrographs of tumor sections 20 min after injection with IF7-A488 and RQ7-A488. […] IF7-A488 signals (upper row) were detected on endothelial cells of tumor vasculature (Scale bar=50 μm), while no RQ7-A488 signal was detected (lower row). […] Arrows indicate fluorescence. (D) Fluorescence remained in circulation in mice with or without subcutaneous B16 tumors. IF7-A488 was injected intravenously through the tail vein, and fluorescence remaining in circulation was measured. […]

[3] = target: T1, annexin 1 (Anxa1) expressed on mouse …; assay: fluorescence microscopy of mouse endothelial F-2 cells cultured in vitro
Experimental: F-2 cells cultured on a filter of trans well insert was added with IF7C(RR)-conjugated FITC-poly-L-lysine to allow the reagent being bound to apical cell surface of F-2 cells. After washing the monolayer with medium, insert was placed in wells containing medium at 37° C. or at 4° C. Fluorescence moved to the lower chamber of insert was measured. C. Targeting and penetration of intravenously injected IF7C(RR)-conjugated FITC-poly-L-lysine in the B16 tumor in vivo in the mouse. Tissue section was immunostained for endothelial cell marker CD31.
Since IF7-SN38 is highly hydrophobic, there was a concern regarding a possibility that IF7-SN38 becomes insoluble after intravenous injection. Such may reduce the activity of IF7-SN38 in vivo. To increase the solubility of IF7-SN38 in aqueous environment, two arginine residues were added to IF7 after the cysteine residue. Thus IFLLWQR-C-RR (SEQ ID NO:17) or IF7C(RR) was synthesized. When IF7C(RR) was conjugated to FITC-poly-L-lysine, IF7C(RR)-conjugated FITC-poly-L-lysine bound to the surface of Anxa1-expressing mouse endothelial F-2 cells (FIG. 12A). […] When IF7C(RR)-conjugated FITC-poly-L-lysine was added to F-2 cells grown on a filter of the insert for trans well chamber, washed and then incubated in a medium at 37° C. or at 4° C., fluorescence migrated to the lower chamber from cells incubated at 37° C. but not at 4° C. […]

[4] = target: T1, annexin 1 (Anxa1) expressed on mouse …; assay: intravital fluorescence of LLC tumors in a dorsal skinfold chamber after intravenous injection; signal intensity over time
Experimental: The line with the lowest signal at 10 minutes represents RQ7-A488. Intensity of fluorescence was determined by Image J program. Error bars represent SD (n=3). Asterisks show statistical significance or p<0.0001, t test. (C) Fluorescence micrographs of tumor sections 20 min after injection with IF7-A488 and RQ7-A488. From left: IF7-A488, DAPI, merged, and bright field. IF7-A488 signals (upper row) were detected on endothelial cells of tumor vasculature (Scale bar=50 μm), while no RQ7-A488 signal was detected (lower row). Experiments were repeated 3 times, and representative results are shown. Arrows indicate fluorescence. (D) Fluorescence remained in circulation in mice with or without subcutaneous B16 tumors. IF7-A488 was injected intravenously through the tail vein, and fluorescence remaining in circulation was measured. […]
A Lewis lung carcinoma (LLC) tumor was produced in a donor nude mouse by subcutaneous injection, and small piece of tumor (less than 1 mm³) was transplanted to a dorsal skinfold chamber in a recipient nude mouse (8-10 weeks female Balb/c nude) as described (Lehr et al., Am J Pathol 1993; 143:1055-62; Oh et al., Nat Biotechnol 2007; 25:327-37). […] Signal intensity in the tumor from 0 min to 40 min was measured by Image J (NIH, Maryland). After 10 min, irradiation of specimens by a UV lamp was limited only to times when photos were taken to avoid fluorescence bleaching. […]

[5] = target: T1, annexin 1 (Anxa1) expressed on mouse …; assay: in vivo phage targeting in B16 tumor-bearing mice pre-injected with control rabbit IgG or anti-Anxa1 antibody; colonies recovered from tissue homogenates
Excerpt: FIGS. 1A-1H show the essential role of annexin 1 (Anxa1) in tumor growth and identification of a peptide sequence with tumor vasculature targeting activity in vivo. A and B. Growth of B16 tumors subcutaneously injected into Anxa1(+/−) and Anxa1(−/−) mutant mice. C. Histology of B16 tumors produced in Anxa1(+/−) and Anxa1(−/−) mice. Each scale bar represents 2.00 mm. D. Immunohistochemistry of B16 tumors for CD31 showing endothelial cells and vasculature. Each scale bar represents 200 μm. E. In vivo phage targeting in B16 tumor-bearing mice. Numbers of transformed colonies recovered from the tumor or lung were determined. […] F. In vivo tumor and organ targeting activity of IFLLWQR (SEQ ID NO:2) displaying phage. Phage was injected into B16 tumor bearing mice pre-injected with anti-Anxa1 antibody or with control rabbit IgG. G. In vitro plate assay for binding of IF7-A488 (upper line) and control RQ7-A488C (lower line) to recombinant […] protein produced by bacteria. H. Effect of IF7 (upper line) and control RQ7 (lower line) on binding of FITC-labeled polyacrylamide-LeA oligosaccharide to Anxa1-His₆ protein.
Mouse melanoma B16F1 cells (2×10⁵ cells/100 μl PBS) were injected subcutaneously into the dorsal flank of C57BL/6 female mice (8-10 weeks old). […] Colonies appearing on an agar plate after culturing at 37° C. for 20 hours were counted.

B1: IF7K3C peptide (…) (peptide)
peptide: IFLLWQRKKKC
In the case of B1, the Kd [1] is reported as 11 µM.

B2: IF7-A488 (chemically synthesized IF7 conjugated with fluorescent Alexa 488) (peptide)
peptide: IFLLWQRC(Alexa Fluor 488 C5‑maleimide)
notes: Synthetic peptide (GenScript)
B2: binds [2].

B3: IF7C(RR)-conjugated FITC-poly-L-lysine (peptide, not shown: large carriers)
peptide: IFLLWQRCRR
modifications: also: conjugated to FITC-poly-L-lysine, site and chemistry not given here
notes: Polymer conjugate; also called IF7C(RR)-conjugated FITC-polylysine; IF7C(RR)-conjugated FITC-poly-lysine
B3: binds [3].

B4: RQ7-A488 (Alexa 488 conjugated with RQWLLFI or reverse IF7) (peptide)
peptide: RQWLLFI
modifications: also: Alexa 488 conjugated, site of attachment not given here
notes: also called RQ7-A488C; control RQ7-A488
B4: no binding [4].

B5: IFLLWQR (SEQ ID NO:2) displaying phage (peptide, not shown: large carriers)
peptide: IFLLWQR
notes: also called IF7 phage; clone #2
B5: binds [5].
